This sample holds only a part of the variants without activity.
B1: TPR 5TU (parent)
chain: GGAUCUUCUCGAUCUAACAAAAAAGACAAAUCUGCCACAAAGCUUGAGAGCAUCUUCGGAUGCAGAGGCGGCAGCCUUCGGUGGCGCGAUAGCGCCAACGUUCUCAACUAUGACACGCAAAACGCGUGCUCCGUUGAAUGGAGUUUAUCAUG

Variants of: B1
Experiment: polymerase ribozyme fitness, log enrichment relative to wild type (log ratio); higher = more active; in vitro selection for triplet polymerase activity
Outline: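 Mutant libraries for each subunit of a heterodimeric triplet polymerase ribozyme were made by PCR and then transcribed. Each library underwent one round of in vitro selection in triplicate: annealing with a biotinylated primer, the partner subunit and triplets, frozen incubation at −7 °C, gel excision of extended constructs, streptavidin-bead capture and RT-PCR. Input and output libraries were Illumina-sequenced, and only genotypes with ≥10 input reads and ≥1 read per output were kept. Fitness is the logarithm, base 2, of genotype enrichment over wild-type enrichment, computed from inverse-variance-weighted replicate averages.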

| Variant | polymerase ribozyme fitness (log ratio) |
| --- | --- |
| A16U G42A G59A G71A A89G | ≤ -4.2 |
| A16U G84U C129A | ≤ -4.2 |
| A16C C54U C85A | -3.31 |
| U15G G59A G88A C132U | ≤ -4.2 |
| A17G C32U C35G G62C C75A | ≤ -4.2 |
| A17G C75A C87A A91C A115U G140U | ≤ -4.2 |
| A17G A20U A52C A89G C95A A106U U134A | ≤ -4.2 |
| A17C U33A A73U C96U G128A G140A U146G | -3.99 |
| A17U G126A | 0.557 |
| A17G G42U C51U C96U C108U | ≤ -4.2 |
| A16G U53A | -1.79 |
| A16U A52C | -2.96 |
| A16U C36U C51A G92A | ≤ -4.2 |
| A17G C54G C93G A106G G126U G141U U144C | ≤ -4.2 |
| A16U A26C A29U G68C G83A | ≤ -4.2 |
| A16U G83C C129G A137C U145C | ≤ -4.2 |
| A16U A39U A49U G50C G84U A119G A121G G140U | ≤ -4.2 |
| A16G A26U C51U A52C C87U | ≤ -4.2 |
| A17U A40U A52G G59A C99G U135C A138G | ≤ -4.2 |
| A16C C43A A52C G70A C131U | ≤ -4.2 |
| A17G C63U G88C | ≤ -4.2 |

| Variant | polymerase ribozyme fitness (log ratio) |
| --- | --- |
| A16U C116A G136A G140C | ≤ -4.2 |
| A16C C87U C118U | -2.27 |
| A16C A52U | -2.03 |
| A17U G42C G59A C69U C96G G141A U146C | ≤ -4.2 |
| A16C A21U C76U C105U | -1.77 |
| A17U G59A C87U C93A G143U U146G | ≤ -4.2 |
| A16G A17C A41U U55A C76U C85A | ≤ -4.2 |
| A16U C32G A66U C72U C85G | ≤ -4.2 |
| A17G U31A | 0.512 |
| A16U A20C C27U A37U G59C A64C C85U A113G A120U C132U | ≤ -4.2 |
| A17U C54U | -0.241 |
| A16C G58C G83U A119C | -1.98 |
| A16G A24U A73U | -2.25 |
| A16C G86C | -3.43 |
| A17U A20G C63G U134G | -3.43 |
| A16C A24U C57U | -2.44 |
| A17U G86A | -0.694 |
| A16U A28C U55A C69A G71A G88C U102G C123U U130G | ≤ -4.2 |
| A16G A37C U55G U56A G59A G83A C87U | -3.9 |
| A17C C96U A107C | -3.77 |
| A16G U33G A39C G58U U151G | ≤ -4.2 |

| Variant | polymerase ribozyme fitness (log ratio) |
| --- | --- |
| A17C A73G C76G U82C C85G | ≤ -4.2 |
| A17G A20U G42C A49C A52U U148A | ≤ -4.2 |
| U15G U31A U55A C93G | -2.44 |
| A17U A49G G86U | -1.95 |
| A16C C27G A49G G50A A60C C79A A91U C105G | ≤ -4.2 |
| A17U A26U A47C A49C G83C C85G | ≤ -4.2 |
| A16C A26G G86U | ≤ -4.2 |
| A17G C57U G94C U139C U144A | ≤ -4.2 |
| A17C A120G | 0.31 |
| A17C C54U A73U G94U A106G | -2.62 |
| A16C A21C U61A | -1.52 |
| A16G A89U A115G A119G U134G U144A | ≤ -4.2 |
| A16C A121G | -1.15 |
| U15G C72U C79A C93U G94U C96A G140A | ≤ -4.2 |
| U15G U135G | -3.65 |
| A17G C35U C85G A98C A121U C123A | -1.35 |
| A17U C69U U77C C87U | ≤ -4.2 |
| A17C C51A C93U A115U | -2.93 |
| A16C A47C U55A | -2.23 |
| A17U A28U G83U C96A C99U C132G | ≤ -4.2 |
| A17G A19C U55G C87U C93U C108U G141U | ≤ -4.2 |

| Variant | polymerase ribozyme fitness (log ratio) |
| --- | --- |
| A16G C35A C87G U109C G126C C149G | ≤ -4.2 |
| A16U G48U G86C C87A A97U C123U U148G | ≤ -4.2 |
| A16U A20C U31G G42C C87G G88C | ≤ -4.2 |
| A17U C38U C95U A115C A142U | -3.52 |
| A16U C32A C35G C96A G124C U144C | ≤ -4.2 |
| U15G U139A | ≤ -4.2 |
| A17U C76A G83A C87G G124A A150C | ≤ -4.2 |
| A17C C54A C87A C114U | ≤ -4.2 |
| A17G A23U C79G | ≤ -4.2 |
| A16G C38A C76A C85U U134A | -4 |
| A16C A120C G140A | -3.75 |
| A17C C85A C99A | -2.66 |
| A16G A21C G80A C103A U104G | ≤ -4.2 |
| A16U A37C C63U C95U C123A G141U | -4.01 |
| U15G A122G | -1.2 |
| A16G A73G | -0.494 |
| U15G C54G G81A C95U | -2.2 |
| A16U A22U A52C C87A A107C C125A U134C | ≤ -4.2 |
| A16U C93G C105G | ≤ -4.2 |
| A16G G25A U45C U53A A91C C103G C108U C125U | ≤ -4.2 |
